One protein from article PMC4665922, “Comparative assessment of native and heterologous 2-oxo acid decarboxylases for application in isobutanol production by Saccharomyces cerevisiae” (Biotechnology for Biofuels, 2015) can be followed below.

One may read the Km as the concentration of substrate that gives half-maximal velocity. By Vmax is commonly meant the top rate of the reaction or transport when substrate is in excess.

Common to all, as to test: cells, lysate or membranes
Common to all, as to assay type: biochemical, Lactococcus lactis

Substrate in data set [1]: CC[C@H](C)C(=O)C(=O)O
To be noted: cell extract of ammonium-grown cells, pH 7.0, 30 °C, 0.2 mM thiamine pyrophosphate, 5 mM MgCl2.

Substrate in data set [2]: CC(C)CC(=O)C(=O)O
To be noted: cell extract of ammonium-grown cells, pH 7.0, 30 °C, 0.2 mM thiamine pyrophosphate, 5 mM MgCl2.

Substrate in data set [3]: CC(C)C(=O)C(=O)O
To be noted: cell extract of ammonium-grown cells, pH 7.0, 30 °C, 0.2 mM thiamine pyrophosphate, 5 mM MgCl2, cooperative, Hill equation.

B1: KivD (Lactococcus lactis subsp. lactis) (protein)
chain: MYTVGDYLLDRLHELGIEEIFGVPGDYNLQFLDQIISHKDMKWVGNANELNASYMADGYARTKKAAAFLTTFGVGELSAVNGLAGSYAENLPVVEIVGSPTSKVQNEGKFVHHTLADGDFKHFMKMHEPVTAARTLLTAENATVEIDRVLSALLKERKPVYINLPVDVAAAKAEKPSLPLKKENSTSNTSDQEILNKIQESLKNAKKPIVITGHEIISFGLEKTVTQFISKTKLPITTLNFGKSSVDEALPSFLGIYNGTLSEPNLKEFVESADFILMLGVKLTDSSTGAFTHHLNENKMISLNIDEGKIFNERIQNFDFESLISSLLDLSEIEYKGKYIDKKQEDFVPSNALLSQDRLWQAVENLTQSNETIVAEQGTSFFGASSIFLKSKSHFIGQPLWGSIGYTFPAALGSQIADKESRHLLFIGDGSLQLTVQELGLAIREKINPICFIINNDGYTVEREIHGPNQSYNDIPMWNYSKLPESFGATEDRVVSKIVRTENEFVSVMKEAQADPNRMYWIELILAKEGAPKVLKKMGKLFAEQNKS
notes: full-length ORF, codon optimised, no tag mentioned; TDH3 promoter plasmid pUDE336 in S. cerevisiae IME262 (pdc1 pdc5 pdc6 aro10 deleted); cell extract
As for B1, in data set [1], the Km is given as 12.9 ± 2.87 mM, the Vmax stood at 0.05 µmol/min/mg and the Vmax/Km came to 3.9 µL/min/mg. In data set [2], the Michaelis-Menten constant (Km) is listed as 2.42 ± 0.90 mM, the Vmax came out at 0.04 µmol/min/mg and the Vmax/Km came to 17 µL/min/mg. For the same protein, in data set [3], the K0.5 is on record as 7.73 ± 1.62 mM, the Vmax turned out to be 0.03 µmol/min/mg and the Vmax/Km was 3.9 µL/min/mg.
